Among the data in the supplement of paper PMC10567573 are protein stability index values, retold here.

± gives the standard deviation.

The nature of this data set: protein stability index of a GFP-peptide fusion (GPS, HEK-293T) (PSI 1-6); higher = more stable.
Setting [1] is: treatment: DMSO, c terminus: a fixed tail appended.
The mark [2] stands for this setting: treatment: MLN4924 1 uM, 8 h, c terminus: a fixed tail appended.
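Also: 24-mer peptide tiles fused after GFP, lentivirally expressed, FACS-sorted into six equal bins by GFP/DsRed ratio, decoded by Illumina sequencing, PSI is the read-weighted mean bin number.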

On to LYRSRMNSLEMTPAVRQRVIEEAK [HMOX1], for which the protein stability index by setting is: under setting [1], 4.04 ± 0.21; under setting [2], 4.06 ± 0.26.

Turning to NLIYRSTRHLKRLALMIQSSGNTV [TMEM192], the protein stability index is, setting by setting: under setting [1], 2.93 ± 0.43; under setting [2], 2.67 ± 0.42.

As for LRLRKERVSDVQKVLQGGEQEIQF [PKD2L1], the protein stability index reads like this: under setting [1], 3.74 ± 0.17; under setting [2], 3.77 ± 0.34.

Take TVDKCFGRKKYDIDPRNGIPKLTP [SPATS1]: the protein stability index is, setting by setting: under setting [1], 3.45 ± 0.36; under setting [2], 3.51 ± 0.23.

With GELGSIGDHERAIDFSPYLEPLGA [CEBPB], the protein stability index is, setting by setting: under setting [1], 4.21 ± 0.6; under setting [2], 4.18 ± 0.32.

In turn, RGEQTTSQVSWEQDLKLFLQEPGV [FCHSD1] had a protein stability index under setting [1] of 4.01 ± 0.27 and a protein stability index under setting [2] of 4.06 ± 0.43.

For the sequence LIKALKIFQEKHVNLLHIESRKSK [TPH1], the protein stability index by setting is: under setting [1], 2.28 ± 0.12; under setting [2], 2.22 ± 0.23.

For AWNIPMSNPGVDFGDVSERLALRQ [GALNT9], the protein stability index is, setting by setting: under setting [1], 3.68 ± 0.27; under setting [2], 3.91 ± 0.26.

For YTFHARFGEVRPYFYLGGARGAGP [TRIM35], the protein stability index under setting [1] was determined as 2.27 ± 0.083 and the protein stability index under setting [2] stood at 2.28 ± 0.4.

In the case of ETQEQDVDLVQKYLEKYYNLKNDG [MMP1], the protein stability index runs as follows: under setting [1], 3.99 ± 0.38; under setting [2], 3.92 ± 0.3.

As for LYRDDVLIKPSRVVAILAAACLLQ [GMCL1], the protein stability index is, setting by setting: under setting [1], 3.05 ± 0.84; under setting [2], 2.45 ± 0.18.

For the sequence FPGRPMGHLSKDVDENDSHEGEDQ [DLC1], the protein stability index by setting is: under setting [1], 4.7 ± 0.38; under setting [2], 5.06 ± 0.31.

KMLRKEAAARCVVLDCRPYLAFAA [DUSP5]: the protein stability index was found to be 2.77 ± 0.63 under setting [1] and 2.51 ± 0.44 under setting [2].

On to TADEIPMEPGDIIGVAGNHWDGYS [FUT8], for which the protein stability index by setting is: under setting [1], 4.21 ± 0.32; under setting [2], 4.16 ± 0.23.

Consider DVALVLTVLLEEETLEASVGPRET [TOR1AIP2], for which the protein stability index was 2.49 ± 0.51 under setting [1] and 2.27 ± 0.31 under setting [2].

For the sequence IRCVYILDPWFAGSSNVGINRWRF [CRY1], the protein stability index amounted to 3.13 ± 0.51 under setting [1] and 3.06 ± 0.51 under setting [2].

As for FDQTVFQEVFEPPHYELCTLRGTG [NETO1], the protein stability index under setting [1] is 2.96 ± 0.12 and the protein stability index under setting [2] is 2.97 ± 0.3.

As to DYLDLDKMSLYSEADSGYGSYGGF [TRIM9], the protein stability index runs as follows: under setting [1], 2.46 ± 0.51; under setting [2], 2.77 ± 0.24.

Consider CIVSPDRPGVQDAALIEAIQDRLS [VDR], for which the protein stability index is, setting by setting: under setting [1], 3.55 ± 0.14; under setting [2], 3.65 ± 0.25.

The sequence TPLHLDLTQLHRLSLESSPDAPDH [PLEKHN1] came in with a protein stability index under setting [1] of 4.59 ± 0.29 and a protein stability index under setting [2] of 4.63 ± 0.23.

ICGLQQDEEVSSLTCDALTELLAK [CCND2]: the protein stability index was 3.48 ± 0.29 under setting [1] and 3.74 ± 0.36 under setting [2].

Regarding KFLEICKLSGFMSKLVPAIQNAHK [TPRG1], the protein stability index under setting [1] is 2.27 ± 0.74 and the protein stability index under setting [2] stood at 2.81 ± 1.

Take ANLTPNVGGYFVDKFVATMYHYLQ [P3H4]: the protein stability index was 2.38 ± 0.69 under setting [1] and 2.23 ± 0.32 under setting [2].

Take SGHGDAHLQEYAGNFQGIRFHYDR [FATE1]: the protein stability index came out at 3.32 ± 0.17 under setting [1] and 3.33 ± 0.1 under setting [2].

GHSFCRPCLCLSWEEAQSPANCPA [TRIM43]: the protein stability index is 3.47 ± 0.34 under setting [1] and 3.66 ± 0.29 under setting [2].

With RSAMSGASQPRGPALLFPATRGVP [TRIB1], the protein stability index under setting [1] worked out at 3.554 ± 0.019 and the protein stability index under setting [2] amounted to 4.14 ± 0.29.

In the case of TFFEVSPLCNFNITESFTELARIV [RAB40B], the protein stability index came out at 2.24 ± 0.51 under setting [1] and 2.14 ± 0.16 under setting [2].

In the case of GLSPYSDYEFRVVAVNNIGRGPPS [PTPRD], the protein stability index runs as follows: under setting [1], 2.41 ± 0.35; under setting [2], 3.14 ± 0.033.

For the sequence VNVTIHFRLKTINLQSLINNEIPD [MCOLN1], the protein stability index stood at 3.28 ± 0.25 under setting [1] and 3.21 ± 0.25 under setting [2].

In turn, QDFNTMFTNCYIYNKPTDDIVLMA [BRD3] returned a protein stability index under setting [1] of 2.12 ± 0.28 and a protein stability index under setting [2] of 2.23 ± 0.25.

NWRYATGGWETVFRPVSETCTDRS [FUT8]: the protein stability index came to 2.21 ± 0.42 under setting [1] and 3 ± 0.67 under setting [2].

Take LKLYYRRLFPYSQYYRWLNYGGVI [PRIM1]: the protein stability index reads like this: under setting [1], 2.07 ± 0.7; under setting [2], 2.6 ± 1.2.

In the case of MPYISDKHPRQTLEVINLLRKHRE [KLHL20], the protein stability index was 2.86 ± 0.51 under setting [1] and 2.98 ± 0.26 under setting [2].

In the case of RLAELEAQVRKLELERAQHELLLG [FBF1], the protein stability index runs as follows: under setting [1], 2.97 ± 0.22; under setting [2], 2.87 ± 0.14.

For QYQQVPVEIVKSDFHKPFLGGFRH [IQUB], the protein stability index reads like this: under setting [1], 2.7 ± 0.36; under setting [2], 2.99 ± 0.49.

In the case of DSLTSLQWLQEFSILNAKAPALPP [FOXJ1], the protein stability index under setting [1] came to 2.26 ± 0.043 and the protein stability index under setting [2] stood at 2.19 ± 0.075.

Consider LQTPLDIRLKESINCQLSDPSSTK [TRIM14], for which the protein stability index is, setting by setting: under setting [1], 4.62 ± 0.29; under setting [2], 4.55 ± 0.34.

Regarding ESRALSTSSNLGSQYQCENGVSGP [TBX5], the protein stability index worked out at 4.95 ± 0.25 under setting [1] and 5.06 ± 0.21 under setting [2].

Turning to ILIQHQKAKHFKCHICHKKLYTGP [ZNF207], the protein stability index runs as follows: under setting [1], 2.44 ± 0.12; under setting [2], 1.88 ± 0.38.

As to GHHAEKLPAGAGAPKAGLEEAPAV [TNFSF13B], the protein stability index turned out to be 5.22 ± 0.3 under setting [1] and 5.27 ± 0.2 under setting [2].

SGEKYDPDANTWTALPPMNEARHN [GAN] displayed a protein stability index under setting [1] of 4.61 ± 0.55 and a protein stability index under setting [2] of 4.8 ± 0.13.

For the sequence RTFGPPPSLSPGAFSYSSSSRFSS [PRPH], the protein stability index is 3.42 ± 0.21 under setting [1] and 3.8 ± 0.3 under setting [2].

MLCAASGNPDPEITWFKDFLPVDT [PTPRD]: the protein stability index runs as follows: under setting [1], 2.95 ± 0.66; under setting [2], 3.23 ± 0.42.

For LYHRADVEKVLRRWVDEEWPKRER [EDARADD], the protein stability index by setting is: under setting [1], 2.87 ± 0.31; under setting [2], 2.94 ± 0.45.

Consider ACALLLTSVDHDRAPVVGVRVNVL [DLC1], for which the protein stability index by setting is: under setting [1], 2.33 ± 0.32; under setting [2], 2.68 ± 0.36.

For QVLFDKVCEHLNLLEKDYFGLTYR [EPB41L3], the protein stability index was found to be 2.4 ± 0.13 under setting [1] and 2.55 ± 0.28 under setting [2].

The sequence LGYLLLGAATNVFLFVLARVPAGI [MFSD9] had a protein stability index under setting [1] of 3.29 ± 0.69 and a protein stability index under setting [2] of 2.94 ± 0.4.

GVGAVPGPGTPTGPSLPSKRESPG [ZBTB22]: the protein stability index runs as follows: under setting [1], 5.41 ± 0.29; under setting [2], 5.21 ± 0.14.

Consider NVADTLVLADLHSAEQLKAQAIDF [SPOPL], for which the protein stability index is, setting by setting: under setting [1], 3.46 ± 0.16; under setting [2], 3.77 ± 0.57.

Sequence RQRCMPEEDLQSQSETQGLEGAQA [MAGEA10] yielded a protein stability index under setting [1] of 5.44 ± 0.28 and a protein stability index under setting [2] of 5.44 ± 0.082.

As to FESGSVSFLNVTKSSLIWSYPAGS [TRIM43], the protein stability index runs as follows: under setting [1], 2.13 ± 0.41; under setting [2], 2.11 ± 0.13.

Consider TNTHPPASLPSQKYPGPQAEGDSE [CHGA], for which the protein stability index by setting is: under setting [1], 5.43 ± 0.2; under setting [2], 5.57 ± 0.13.

As for LSGATKKGTEKQTTSETQKSVQCG [NETO1], the protein stability index by setting is: under setting [1], 5.17 ± 0.27; under setting [2], 5.22 ± 0.24.

Consider VNEKLPQREGTGKTVSLQIFSVLN [SMOC2], for which the protein stability index reads like this: under setting [1], 2.7 ± 0.37; under setting [2], 2.84 ± 0.4.

LPLERDAESFLLKSPIAPCSLDKR [CDC25B]: the protein stability index under setting [1] was determined as 4.35 ± 0.18 and the protein stability index under setting [2] was 4.35 ± 0.15.

On to IDCGKAFSQKSCLVAHQRYHTGKT [ZNF649], for which the protein stability index under setting [1] was determined as 2.83 ± 0.24 and the protein stability index under setting [2] stood at 2.87 ± 0.16.

Turning to FFRKLLDCCQVSAPNRFFQKLNVF [NLN], the protein stability index under setting [1] is 2.02 ± 0.073 and the protein stability index under setting [2] is 2.47 ± 0.74.

Consider TRPKKMGSQLPKPRMLRESGHGDA [FATE1], for which the protein stability index runs as follows: under setting [1], 4.53 ± 0.19; under setting [2], 4.53 ± 0.22.

Consider RPEELLQMELLLVNKLKWNLAAMT [CCND1], for which the protein stability index runs as follows: under setting [1], 2.68 ± 0.71; under setting [2], 2.52 ± 0.66.

With NENMAAKKKSVAMHTNYLSACSFT [GNB5], the protein stability index by setting is: under setting [1], 3.09 ± 0.21; under setting [2], 3.25 ± 0.3.

As to PEVECLKANTNEVLWAVVAAFTK [GOLPH3], the protein stability index runs as follows: (treatment: DMSO, c terminus: native) 2.17 ± 0.17; (treatment: MLN4924 1 uM, 8 h, c terminus: native) 2.25 ± 0.31.

With RLVQLLVRAHQDTQRRTSMGGTQQ [CTNNB1], the protein stability index was determined as 2.23 ± 0.25 under setting [1] and 2.54 ± 0.54 under setting [2].

RNVTGTPLTGDKDDEEVDTHFASQ [ADAMTSL2]: the protein stability index was 5.5 ± 0.22 under setting [1] and 5.32 ± 0.27 under setting [2].

Take AGFDALQGDPKGEMAATPAGFAQL [HDAC6]: the protein stability index is, setting by setting: under setting [1], 4.37 ± 0.21; under setting [2], 4.09 ± 0.36.

In the case of QRRTEASRNAADKERAAGGGAGSS [GOLPH3], the protein stability index is, setting by setting: under setting [1], 5.54 ± 0.23; under setting [2], 5.36 ± 0.15.

As to VPMILVGNKCDLEDERVVGKEQGQ [RAP1B], the protein stability index under setting [1] came out at 4.56 ± 0.35 and the protein stability index under setting [2] was 4.72 ± 0.39.

LLLEPGSLYILRGSARYDFSHEIL [ALKBH7]: the protein stability index reads like this: under setting [1], 2.58 ± 1.2; under setting [2], 2.58 ± 1.3.

Turning to MEAGERIDASQLPHRVLETRGHAI [SMIM2], the protein stability index runs as follows: under setting [1], 4.19 ± 0.44; under setting [2], 4.02 ± 0.6.

As for FMTTNVPNVYPAAPQGGMAALNMS [ADD1], the protein stability index under setting [1] amounted to 2.73 ± 0.41 and the protein stability index under setting [2] worked out at 2.87 ± 0.36.

Take TAERKQEQKTGTEAEAADSGAVGA [MFSD9]: the protein stability index runs as follows: under setting [1], 5.56 ± 0.28; under setting [2], 5.65 ± 0.23.

For IDKKPVSEKTDESDTIPYLKKFLY [MIA2], the protein stability index reads like this: under setting [1], 2.83 ± 0.57; under setting [2], 2.95 ± 0.4.

NRFVQLSGRPHLPGKKKIRWDPVR [KLHDC10]: the protein stability index by setting is: under setting [1], 2.5 ± 0.6; under setting [2], 2.49 ± 0.52.
